Data taken from US5420243.
Ends that are not written are not given here.

Assays:
[1] = target: L6 rat muscle myoblast TGF-β receptor (rat); assay: competition against 125I-TGF-β2 on L6 rat muscle myoblast TGF-β receptor (Example 5)
[2] = target: L6 rat muscle myoblast TGF-β receptor (rat); assay: competition against 125I-TGF-β2 on L6 rat muscle myoblasts; called apparent dissociation constant of approximately 3 µM in paragraph 85
[3] = target: L6 rat muscle myoblast TGF-β receptor (rat); assay: competition against 125I-TGF-β2 on L6 rat muscle myoblasts

Row | ED50 [3] [µM] | Molecule | also measured
1 | – | TGF-β2 (from UniProt P61812) (ligand) | ED50 [1]: 0.06 nM
2 | – | CLRPLYIDFKRDLGWKWIHEPKGYNANFCAGA (also: dimer linked by a single disulfide bond, Cys pairing not settled) [TGF-β2 16-47 dimer] | ED50 [2]: 3 µM
3 | 30 | CLRPLYIDFKRDLGWKWIHEPKGYNANFCAGA [TGF-β2 16-47 monomer] | –
4 | 30 | CLRPLYIDFKRDLGWK (also: disulfide-linked dimer) [TGF-β2 16-31 dimer] | –
